Data as given in patent US7258861B2, “TNF-derived peptides for use in treating oedema” (Innogenetics N.V., priority 2001, dated 2007).
Positions of bridges follow the written chain, without caps; N, C: chain ends. No end group written: not given here. *: point of attachment. Biotin = O=C1N[C@H]2[C@H](CS[C@H]2CCCCC(=O)*)N1

B1: mutTNF: E.coli-derived recombinant (T104A-E106A-E109A) triple TNF mutant (protein, UniProt P06804 1-235, looked up, variant T104A E106A E109A)
chain: MSTESMIRDVELAEEALPQKMGGFQNSRRCLCLSLFSFLLVAGATTLFCLLNFGVIGPQRDEKFPNGLPLISSMAQTLTLRSSSQNSSDKPVAHVVANHQVEEQLEWLSQRANALLANGMDLKDNQLVVPADGLYLVYSQVLFKGQGCPDYVLLTHTVSRFAISYQEKVNLLSAVKSPCPKDAPAGAALKPWYEPIYLGGVFQLEKGDQLSAEVNLPKYLDFAESGQVYFGVIAL

What was measured:
[1] = system: lung microvascular endothelial cells; assay: Whole-cell patch clamp, membrane conductance in lung microvascular endothelial cells; format: cell-based, mouse
From the text: (§1) Animals, cells and reagents. Male CBA/J or C57BL/6 mice, as well as male TNFR ½^0/0 C57BL/6 mice deficient in TNF receptors (Bruce et al., 1996) provided by H. Bluethmann, F. Hoffmann-La Roche, Basel, Switzerland, were used at the age of 8–10 weeks. Their care was in accordance with institutional guidelines. Lung microvascular endothelial cells were isolated from CBA/J mice and characterized as described (Jackson et al., 1990) using magnetic beads (Dynabeads M-450, Dynal, Oslo, Norway), covalently bound to a purified rat-anti-mouse PECAM-1 monoclonal antibody (donated by B. Imhof, University of Geneva). Microvascular lung endothelial cells were resuspended in DMEM containing 2 mM L-glutamine, 100 U/ml penicillin, […], 20% FCS, 40 U/ml heparin and […] endothelial cell growth supplement (Brunschwig Chemie, Basel, Switzerland). For patch clamp experiments, cells were plated onto 35×10 mm easy grip Petri dishes (Beckton Dickinson, Plymouth, UK), pre-coated with 0.2% gelatin (Sigma, Buchs, Switzerland). Resident peritoneal macrophages, isolated in ice cold RPMI containing antibiotics and 10 U/ml Heparin, were left to adhere onto 35×10 mm easy grip Petri dishes for 4 h, after which the non-adherent cells were removed. Cells were grown in RPMI 1640 containing 2 mM L-glutamine, 100 U/ml penicillin, 10 μpg/ml streptomycin and 10% fetal bovine serum (all from Gibco). For patch clamp, the macrophages ware used 24 h after isolation.
Electrophysiology. Cells were pretreated for 30 min with TNF, mutTNF and tip peptides at 37° C. in a buffer consisting of 145 mM NaCl, 3 mM KCl, 2mM CaCl2, 2mM MgCl2, 10 mM D-glucose, and 10mM Hepes, and pH-adjusted with NaOH to required value. Cells were then washed with the same buffer pH-adjusted at 7.3, and experiments were performed using the tight-seal, whole-cell recording technique. Currents were recorded with an Axopatch-200A amplifier (Axon Instrument Inc, Foster City, Calif., USA), low pass-filtered at 1 kHz. Digitalization and off-line analysis was performed using the WCP program (J. Dempster, Strathclyde Electrophysiology Software, Glasgow, UK). Patch pipettes were pulled from borosilicate glass and fire polished to have an open resistance of 3–5 MW with an internal solution containing […], 2 mM MgCl2, 10mM EGTA, 20 mM TEA-Cl, 10 mM D-glucose 10 mM Hepes, pH-adjusted to 7.3 with CsOH. Series resistances were kept under 10 MW. Capacitance and series resistance compensation were applied and set to 70%. All experiments were done at room temperature. Results are given as mean ±SEM, unless otherwise indicated. Analysis of variance was performed on currents and membrane conductance values, with post-hoc Dunn-Bonferroni test for significance of differences observed between two groups. A P value of 0.05 was considered significant.

[2] = system: resident peritoneal macrophages from mice deficient in both TNF receptor-1 and -2; assay: Whole-cell patch clamp in resident peritoneal macrophages of TNFR1/2-deficient mice; format: cell-based, mouse; conditions: cells lacking TNF receptors
From the text: as §1, with “Cells were grown in RPMI 1640 containing 2 mM L-glutamine, 100 U/ml penicillin, 10 μpg/ml streptomycin and 10% fetal bovine serum (all from Gibco). For patch clamp, the macrophages ware used 24 h after isolation.” left out
(§2) Electrophysiology. […] Currents were recorded with an Axopatch-200A amplifier (Axon Instrument Inc, Foster City, Calif., USA), low pass-filtered at 1 kHz. […]

[3] = Chloride efflux from SPQ-containing liposomes
Description: Preparation of liposomes. Large unilamellar liposomes were prepared by reverse phase evaporation as previously described (Vecsey-Semjen et al., 1996). Liposomes were prepared of either 100% egg phosphatidylglycerol (EPG) or a mixture of EPC and EPG (1:1 W/W) in a buffer containing 100 mM KCl, 20 mM N-[2-Hydroxyethyl]piperazine-N′-[2-ethane-sulfonic acid] (HEPES), pH 7.4 and 1.5 mg/ml of 6-methoxy-N-(3-sulfopropyl)quinolinium (SPQ).
Choride efflux measurements. All fluorescence experiments were carried out using a PTI spectrofluorometer equipped with a thermostated cell holder (37° C.). The dye was excited at 350 nm and emission was recorded at 422 nm, both excitation and emission band widths were set to 5 nm. Liposomes were diluted to a final concentration of 50 μg/ml in a solution containing 100 mM KNO3 and 20 mM MES pH 6.1 or 20 mM HEPES, pH 7.4. Wild type and mutant TNF were added to a final concentration of 3 μg/ml.

isolated rat lungs = assay: Isolated lung perfusion experiments (blood perfused, flooded with NaCl); conditions: after injection of 2 ml NaCl solution; 1 mg/lung
Description: Lungs of female Whistar rats weighing about 300 g were isolated as described in DeCampos et al. (1993). The lungs were injected intratracheally with either 500 μl of sterile […], wild type murine TNF (1 μg/lung) or mTNF tip peptide (Ltip (SEQ ID NO:6), see above; 1 mg/lung). Subsequently, the lungs were perfused with blood isolated from the same rat. Thirty minutes later, the lungs were injected intratracheally with 2 ml of sterile […] solution which leads to a weight increase of about 2 g (FIG. 5). The weight evolution was then followed continuously for 150 min (FIG. 5).

[4] = system: resident peritoneal macrophages; assay: Whole-cell patch clamp in resident peritoneal macrophages; format: cell-based, mouse; conditions: 30 min preincubation, acidic pH
From the text: as §1, with “Cells were grown in RPMI 1640 containing 2 mM L-glutamine, 100 U/ml penicillin, 10 μpg/ml streptomycin and 10% fetal bovine serum (all from Gibco). For patch clamp, the macrophages ware used 24 h after isolation.” left out
as §2

[5] = Quenching of tryptophan fluorescence by brominated lipids; conditions: acidic pH
From the text: In order to investigate whether chloride efflux was due to membrane binding or membrane insertion of TNF, we have analyzed whether brominated lipids were able to quench the intrinsic fluorescence of TNF and mutTNF upon membrane interaction. Brominated lipids have been useful in determining the topology of membrane proteins (Bolon et al., 1990) (Markello et al., 1985) as well as studying the membrane interaction of pore-forming toxins (Gonzalez-Manas et al., 1992) (Van der Goot et al., 1991) (Vecsey-Semjen et al., 1997). TNF contains two tryptophan residues, one at the top of the receptor binding domain and one at the top of the so called tip domain. If the tip of the TNF trimer were to insert into the lipid bilayer, the fluorescence of Trp-113 should be quenched upon insertion into liposomes composed of dioleoylphosphatidylglycerol that had bromines attached at positions 9 and 10 of the acyl chains. We have indeed previously observed that tryptophans located at the boundary between the lipid head groups and the acyl chains were succeptible to bromide quenching.

trypanosome = conditions: compared to wild type TNF; cited from earlier work
[6] = Tryptophan fluorescence (acidic unfolding); format: physicochemical
Description: Tryptophan fluorescence. Fluorescence measurements were made with a PTI spectrofluorimeter. The excitation wavelength was 295 nm and slit widths were 5 nm and 2.5 nm for excitation and emission respectively. For each recorded spectrum, the Raman scatter contribution was removed by subtraction of a buffer blank. All buffers contained 150 mM NaCl, and 20 mM of N-[2-morpholino] ethane-sulfonic acid (MES) buffer at the desired pH. The samples were allowed to incubate for 1 h 30 at the desired pH before measuring the emission spectrum. The wild type and mutant TNF concentrations were 6 μg/ml.

[7] = compared to wild-type mTNF in vivo; cited from earlier work
[8] = system: murine model of peritonitis; conditions: cited from earlier work
[9] = 30 min preincubation at acidic pH (pH 6), TNF, mutTNF 100 ng/ml, peptides 100 μg/ml

| Molecule | induced increase in conductance in presence of amiloride ([1]; 100 μM amiloride added during pretreatment at pH 6.0) | whole cell current / membrane conductance [1, 9] | whole cell current / membrane conductance ([1]; preincubation at pH 7.3 (neutral pH)) | whole cell current [2] | change in SPQ fluorescence / interaction with membranes ([3]; peptide concentrations up to 300 μg/ml, neutral, acidic or 1:1 lipids) | start of weight loss (isolated rat lungs) | whole cell current [4] | fluorescence quenching by brominated lipids [5] | trypanolytic and lectin-like affinity to oligosaccharides (trypanosome) | chloride efflux (SPQ fluorescence) ([3]; 100% EPG liposomes, pH 6.1, 3 μg/ml) | interaction with membranes ([3]; neutral pH) | acidic unfolding ([6]; acidification of the medium) | maximum emission of tryptophan fluorescence ([6]; pH 4.6) | maximum emission of tryptophan fluorescence ([6]; pH 6) | systemic toxicity [7] | peritonitis-protective effect [8] |
| --- | --- | --- | --- | --- | --- | --- | --- | --- | --- | --- | --- | --- | --- | --- | --- | --- |
| GG-CGPKDTPEGAELKPWYC (Biotin-GGCGPKDTPEGAELKPWYC; disulfide 3-19; listed as Mus musculus) [LTip] | blocked | increased outward, and inward currents | persisted at neutral pH, although less pronounced | also active | unable to interact with membranes | started immediately | increased outward |  |  |  |  |  |  |  |  |  |
| B1 |  | completely lacked the conductance activating effect |  |  |  |  |  | unable to see any fluorescence quenching | lacks the trypanolytic and lectin-like affinity to oligosaccharides | even more pronounced than that of wild type TNF | did not interact with membranes | able to undergo acidic unfolding | 339 nm | 318 nm | significantly reduced systemic toxicity | retains its peritonitis-protective effect |
